Data on one molecule can be found in PMC3291610, “Identification of the Neogenin-Binding Site on the Repulsive Guidance Molecule A” (PLoS ONE, 2012).

The target of the assay is T1, Recombinant mouse neogenin-Fc chimera protein (mouse, UniProt P97798 37-1136).
T1 construct: neogenin, mouse, extracellular domain (ECD); No catalogue number printed; detected by an anti-IgG Fc antibody; also called neogenin-ECD-Fc; Fc-fused neogenin ECD; source: bought: R&D Systems
T1 sequence (looked up): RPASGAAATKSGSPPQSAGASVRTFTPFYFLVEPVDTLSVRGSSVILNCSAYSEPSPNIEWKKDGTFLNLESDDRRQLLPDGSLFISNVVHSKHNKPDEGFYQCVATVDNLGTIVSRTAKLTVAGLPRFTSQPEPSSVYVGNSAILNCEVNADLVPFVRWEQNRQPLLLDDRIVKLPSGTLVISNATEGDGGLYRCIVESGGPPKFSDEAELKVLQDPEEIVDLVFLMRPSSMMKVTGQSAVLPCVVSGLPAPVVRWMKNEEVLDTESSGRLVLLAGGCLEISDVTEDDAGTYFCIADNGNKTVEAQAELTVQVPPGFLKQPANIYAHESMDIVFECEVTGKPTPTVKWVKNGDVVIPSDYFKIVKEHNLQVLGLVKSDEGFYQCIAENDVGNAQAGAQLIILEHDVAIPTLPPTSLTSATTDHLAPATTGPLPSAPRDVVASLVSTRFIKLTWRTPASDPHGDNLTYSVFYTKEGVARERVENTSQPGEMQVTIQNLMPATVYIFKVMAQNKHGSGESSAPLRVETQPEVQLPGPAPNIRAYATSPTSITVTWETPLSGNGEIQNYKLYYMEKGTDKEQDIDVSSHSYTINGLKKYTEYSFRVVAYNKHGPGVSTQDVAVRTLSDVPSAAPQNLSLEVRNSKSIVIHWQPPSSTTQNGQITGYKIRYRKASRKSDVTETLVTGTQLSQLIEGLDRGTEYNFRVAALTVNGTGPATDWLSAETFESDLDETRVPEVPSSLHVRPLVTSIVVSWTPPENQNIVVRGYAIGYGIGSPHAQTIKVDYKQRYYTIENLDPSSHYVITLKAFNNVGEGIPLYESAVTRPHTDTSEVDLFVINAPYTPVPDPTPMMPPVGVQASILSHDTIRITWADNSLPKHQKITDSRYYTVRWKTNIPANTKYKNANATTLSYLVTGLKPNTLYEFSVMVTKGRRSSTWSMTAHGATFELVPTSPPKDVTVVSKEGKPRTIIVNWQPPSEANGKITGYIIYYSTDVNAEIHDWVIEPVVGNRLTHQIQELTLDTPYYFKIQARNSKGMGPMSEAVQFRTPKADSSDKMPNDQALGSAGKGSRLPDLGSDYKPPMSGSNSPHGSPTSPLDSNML
The experiment in a line: ELISA; synthetic TAT-RGMa peptides coated on the plate (5 µg/mL, 16 h, 4°C), blocked with 5% BSA/PBS; neogenin-Fc added at 1 µg/mL for 1 h; detected with anti-IgG Fc antibody and HRP secondary, A450. Particulars: both partners purified. For orientation: ELISA stands for enzyme-linked immunosorbent assay.

B1: RGMa peptide 4 (aa 284-293) fused with an N-terminal TAT protein (peptide)
peptide: YGRKKRRQRRRRQVGRYLTFA
notes: The TAT-fused form was used in the ELISA; peptide 4 without TAT was used in the growth cone collapse assay; also called Pep4; source: synthetic peptide (SIGMA Life Science, Japan)
On to B1, for which the binding result is recorded as “binds”.
